Values of other authors, collected in publication PMC12990809.

Legend:
Assay in all cases: pulldown
Settings in all cases: 20 nM protein, 1.5 uM RNA pool; 20 mM HEPES pH 7.8, 70 mM KCl, 10 mM NaCl, 10% glycerol, 2 mM DTT, 0.1 ug/uL BSA; 30 min, 4 C (protocol of this paper; not …); cited from earlier work
[1] = target: T1, Rbp1-like (Drosophila melanogaster) (UniProt M9MS48)
T1 sequence: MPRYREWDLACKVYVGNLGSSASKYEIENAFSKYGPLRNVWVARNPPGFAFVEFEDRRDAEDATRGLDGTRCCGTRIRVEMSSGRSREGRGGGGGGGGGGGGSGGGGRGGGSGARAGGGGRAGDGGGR

[2] = target: Rbp9 (Drosophila melanogaster) (UniProt A2RVE5)
Rbp9 (Drosophila melanogaster), sequence (A2RVE5 entry or part of it): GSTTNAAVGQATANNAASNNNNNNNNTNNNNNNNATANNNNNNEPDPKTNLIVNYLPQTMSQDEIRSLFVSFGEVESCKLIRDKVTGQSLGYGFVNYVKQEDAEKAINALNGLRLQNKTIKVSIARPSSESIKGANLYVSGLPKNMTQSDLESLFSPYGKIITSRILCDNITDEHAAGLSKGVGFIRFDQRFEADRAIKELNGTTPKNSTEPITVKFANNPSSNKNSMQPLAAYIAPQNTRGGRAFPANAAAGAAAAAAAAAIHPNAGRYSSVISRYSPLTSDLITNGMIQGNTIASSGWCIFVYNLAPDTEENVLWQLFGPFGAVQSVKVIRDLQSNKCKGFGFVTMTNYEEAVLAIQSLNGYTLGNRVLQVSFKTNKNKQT

[3] = target: T2, Syp G309D (Drosophila melanogaster) (UniProt Q7KSA0)
T2 sequence: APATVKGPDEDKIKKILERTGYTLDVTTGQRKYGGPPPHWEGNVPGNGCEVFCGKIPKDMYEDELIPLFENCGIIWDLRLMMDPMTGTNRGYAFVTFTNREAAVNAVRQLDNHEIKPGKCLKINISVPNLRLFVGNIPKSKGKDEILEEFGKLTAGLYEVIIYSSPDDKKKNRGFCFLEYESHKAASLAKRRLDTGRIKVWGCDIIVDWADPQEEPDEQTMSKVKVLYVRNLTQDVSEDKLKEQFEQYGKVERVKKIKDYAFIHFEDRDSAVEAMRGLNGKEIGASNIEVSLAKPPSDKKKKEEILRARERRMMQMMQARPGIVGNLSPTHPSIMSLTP

[4] = target: T3, cpo (Drosophila melanogaster) (UniProt Q01617)
T3 sequence: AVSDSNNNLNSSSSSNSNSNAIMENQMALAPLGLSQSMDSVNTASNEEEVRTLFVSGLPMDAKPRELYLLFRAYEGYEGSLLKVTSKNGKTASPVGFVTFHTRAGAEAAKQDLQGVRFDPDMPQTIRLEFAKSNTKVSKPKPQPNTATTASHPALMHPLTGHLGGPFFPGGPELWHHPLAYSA

CAUCAUCG [RNAcompete motif RNCMPT00127]
binding signal (z-score (mean of top ten 7-mers)) [1]: 10.7

UUUNGUU [RNAcompete motif RNCMPT00132]
binding signal (z-score (mean of top ten 7-mers)) [2]: 15.5

AAAUU [RNAcompete motif RNCMPT00131]
binding signal (z-score (mean of top ten 7-mers)) [3]: 13.5

AGCAC [RNAcompete motif RNCMPT00133]
binding signal (z-score (mean of top ten 7-mers)) [4]: 12.9
